B1: HDV Ribozyme (parent)
chain: GGCCGGCAUGGUCCCAGCCUCCUCGCUGGCGCCGGCUGGGCAACAUUCCGAGGGGACCGUCCCCUCGGUAAUGGCGAAUGGGACCCA

Variants of: B1
Assay: self-cleavage, relative activity (ratio to wild type); higher = more cleavage; co-transcriptional
Work on GGCCGGCAUGGUCCCAGCUUCCUCGCUGGCGCCGGCUGGGCAACAUUCCGAGGGCACCGUCCCCUCGGUAAUGGCGAAUGGGACCCA yielded a self-cleavage of 0.164.
In the case of GGCCGGCAUGGUCCCAGCCUCCUCGCUGGCGCCGGCUGGGCAACAUUCCGAGGGGACCGUCCCCUCGGUAAUGGCGAAUUGGACCCA, the self-cleavage is reported as 0.223.
For GGCCGGCAUGGUCCCAGCCUCCUCGUUUGCGCCGGCUGGGCAACAUUCCGAGGGGACCGUCCCCUCGGUAAUGGCGAAUGGGACCCA, the self-cleavage was 0.277.
In the case of GGCCGGCAUGGUCCCAGCCUCGUCGCUGGCGCCGGCUGGGCAACAUUCCGAGGGGACCGUCGCCUCGGUAAUGGCGAAUGGGACCCA, the self-cleavage is reported as 0.111.
Variant GGCCGGCAUGGUCCCAGCCUCCUCGCUGGCGCCGGCUGGACAACAUUCCGAGGGGACCGUCCCCUCGGUAAUGGCGAUUGGGACCCA has a self-cleavage of 0.404.
Work on GGCCGGCAUGGUCCCAGCCUCCCCGCUGGCGCCGGCUGGGCAACAUUCUGAGGGGACCGUCCCCUCGGUAAUGGCGAAUGGGACCCA yielded a self-cleavage of 0.852.
For GGCCGGCAUGGUCCCAGCCUCCUCGCUGGCGCCGGCUGGGCAUCAUUCCGAGGGGACCGUCCCAUCGGUAAUGGCGAAUGGGACCCA, the self-cleavage was 0.397.
Work on GGCCGGCAUGGUCCCAGCCUCCUCGCUGGCUCCGGCUGGGCAACAUUCCGAGGAGACCGUCCCCUCGGUAAUGGCGAAUGGGACCCA yielded a self-cleavage of 0.403.
GGCCGGCAUGGUCCCAGCCUCCUCGCUGGCGCCGGCUGGGCAUCAUUCCGAGGGGACCGUCCCCUCAGUAAUGGCGAAUGGGACCCA gave a self-cleavage of 0.237.
For GGCCGGCAUGCUCCCAGCCUCCUCGCUGGCGCCGGCUGGGCAACAUUCCGAGGGGACCGUCCCCUCGGUAAUGGCGAAUGAGACCCA, the self-cleavage was 0.
GGCCGGCAUGGUCCCAGCCUCCUCGCUGGCGCCGGCUGGGCAACGUUCCGAGGGGACCGUCCCCUCGGUAAUGGCGAAUGGGACCCG gave a self-cleavage of 0.868.
With GGCCGGCAUGGUCCCAGCCUUCUCGCUGGCGCCGGCUGGGCAACAUUCCGAGGGGACCGUCCCCUCGGUAAUCGCGAAUGGGACCCA the self-cleavage was 0.119.
GCCCGGCAUGGUCCCAGCCUCCUCGCUGGCGCCUGCUGGGCAACAUUCCGAGGGGACCGUCCCCUCGGUAAUGGCGAAUGGGACCCA gave a self-cleavage of 0.0966.
Work on GGCCGGCAAGGUCCCAGCCUCCUCGCUGGCGCCGGCUGGGCAACAAUCCGAGGGGACCGUCCCCUCGGUAAUGGCGAAUGGGACCCA yielded a self-cleavage of 0.743.
With GGCCGGCAUGGUCCCAGCCUCCUCGCUGGCGCCGGCUGGGCAACAUUCCGAGGGGACCGUCCCCUAGGUGAUGGCGAAUGGGACCCA the self-cleavage was 0.745.
For GCCCGGCAUGGUCCCAGCCUCCUCGCUGGCGCCGGCUGGGCAACAUUCCGAGGGGACCGUCUCCUCGGUAAUGGCGAAUGGGACCCA, the self-cleavage was 0.0841.
GGCCGGCAUGGUCCCAGCCUCCUCGCUGGCGCCGGCUGGGCAACUUUCCGAGGGGACCGUCCCCUCGGUUAUGGCGAAUGGGACCCA gave a self-cleavage of 0.989.
For GGCCGGCAUGGUCCCAGCCUCCUCGCUGGAGCCGGCUGGGCAACAUUCCGAGGGGACCGUCCCCUCGGUAAUGGCGAAUGGGACGCA, the self-cleavage was 0.509.
In the case of GGCCGGCAAGGUCCCCGCCUCCUCGCUGGCGCCGGCUGGGCAACAUUCCGAGGGGACCGUCCCCUCGGUAAUGGCGAAUGGGACCCA, the self-cleavage is reported as 0.712.
For GGCCGGCAUGGUCCCAGCCUCCUCGCUGGCGCCGGCUGGGCACCAUUCCGAGGGGACCGUCCCCUCGGUAAUGGCGAAUGGGACCGA, the self-cleavage was 0.399.
Variant GGCCGGCAUGGUCCCAGCCUCCUCGCUGGCGCCGGCUGGGCAACAUUCCGAGGGGACCGUCCCCUCGGUAAUGGCGCAUUGGACCCA has a self-cleavage of 0.219.
Variant GGCCGGCAUGGUCCCAGCCUCCUCGCUGGCGCCGGCUGGGCAACAUUCCGAGGGGACCGUCCACUCGGUAAUGGCGAAUGGGAGCCA has a self-cleavage of 0.759.
GGCCGGCAUGGUCCCAGCCUCCUCGCUGGCGCCGGCUCGGCAACAUUCCGAGGGGACCGUCCCCUCGGUAAUGGCGAAUGGGACCCG gave a self-cleavage of 0.155.
Variant GGCCGGCAUGGUCCCAGCCUCCUCGCUGGCGCCGGCUGGGCAACAUUCCGAGGGGACCGUCCCCUCGCUAAUGGCGAAUCGGACCCA has a self-cleavage of 0.208.
GGCCGGCAUGGUCCCAGCCUCCUCGCUGGCGCCGGCUGGGCAACAUUGCGAGGGGACCGUACCCUCGGUAAUGGCGAAUGGGACCCA showed a self-cleavage of 0.927.
Work on CGCCGGCAUGGUCCCAGCCUCCUCGCUGGCGCGGGCUGGGCAACAUUCCGAGGGGACCGUCCCCUCGGUAAUGGCGAAUGGGACCCA yielded a self-cleavage of 0.
In the case of GGCCGGCAUGGUCCUAGCCGCCUCGCUGGCGCCGGCUGGGCAACAUUCCGAGGGGACCGUCCCCUCGGUAAUGGCGAAUGGGACCCA, the self-cleavage is reported as 0.166.
GGCCGGCAUGGUCCCAGUCUCCUCGCUGGCGCCGGCUGGGCGACAUUCCGAGGGGACCGUCCCCUCGGUAAUGGCGAAUGGGACCCA showed a self-cleavage of 0.151.
GGCCGGCACGGUCCCAGCCUCCUCGCUGGCGCCGGCUGGGCAACAUUCCGAGGGGACCGGCCCCUCGGUAAUGGCGAAUGGGACCCA showed a self-cleavage of 0.723.
Variant GGCCGGCAUGGUCCCAGCCUCCUCGCUGGCGCCGGCUGGGCAACAUUCCUAGGGGACCGUCCCCUCGGUAAGGGCGAAUGGGACCCA has a self-cleavage of 0.415.
GGCCGGCAUGGUCCCAGCCUGCUCGCUGGCGCCGGCUGGGCAACAUUCCGAUGGGACCGUCCCCUCGGUAAUGGCGAAUGGGACCCA showed a self-cleavage of 0.117.
For GGCCGGCAUGGUCCCAUCCUCCUCGCUGGCGCCGGCUGGGCAACAUUCCGAGGGGACCGUCCCCUCGGUAAUAGCGAAUGGGACCCA, the self-cleavage was 0.233.
